Measurements: PMC5264652 (EBioMedicine, 2016)
“And” between values parts separate entries of the source, which are not always exact repeats. Identical values can stand only once. Like-named read-outs stand apart in the source and are kept apart here.

B2: ClfA_(229–545) (domain or fragment)
chain: GTDITNQLTNVTVGIDSGTTVYPHQAGYVKLNYGFSVPNSAVKGDTFKITVPKELNLNGVTSTAKVPPIMAGDQVLANGVIDSDGNVIYTFTDYVNTKDDVKATLTMPAYIDPENVKKTGNVTLATGIGSTTANKTVLVDYEKYGKFYNLSIKGTIDQIDKTNNTYRQTIYVNPSGDNVIAPVLTGNLKPNTDSNALIDQQNTSIKVYKVDNAADLSESYFVNPENFEDVTNSVNITFPNPNQYKVEFNTPDDQITTPYIVVVNGHIDPNSKGDLALRSTLYGYNSNIIWRSMSWDNEVAFNNGSGSGDGIDKPVVP
B5: Human fibrinogen (complex)
chain 1: ADSGEGDFLAEGGGVRGPRVVERHQSACKDSDWPFCSDEDWNYKCPSGCRMKGLIDEVNQDFTNRINKLKNSLFEYQKNNKDSHSLTTNIMEILRGDFSSANNRDNTYNRVSEDLRSRIEVLKRKVIEKVQHIQLLQKNVRAQLVDMKRLEVDIDIKIRSCRGSCSRALAREVDLKDYEDQQKQLEQVIAKDLLPSRDRQHLPLIKMKPVPDLVPGNFKSQLQKVPPEWKALTDMPQMRMELERPGGNEITRGGSTSYGTGSETESPRNPSSAGSWNSGSSGPGSTGNRNPGSSGTGGTATWKPGSSGPGSTGSWNSGSSGTGSTGNQNPGSPRPGSTGTWNPGSSERGSAGHWTSESSVSGSTGQWHSESGSFRPDSPGSGNARPNNPDWGTFEEVSGNVSPGTRREYHTEKLVTSKGDKELRTGKEKVTSGSTTTTRRSCSKTVTKTVIGPDGHKEVTKEVVTSEDGSDCPEAMDLGTLSGIGTLDGFRHRHPDEAAFFDTASTGKTFPGFFSPMLGEFVSETESRGSESGIFTNTKESSSHHPGIAEFPSRGKSSSYSKQFTSSTSYNRGDSTFESKSYKMADEAGSEADHEGTHSTKRGHAKSRPVRGIHTSPLGKPSLSP
chain 2: QGVNDNEEGFFSARGHRPLDKKREEAPSLRPAPPPISGGGYRARPAKAAATQKKVERKAPDAGGCLHADPDLGVLCPTGCQLQEALLQQERPIRNSVDELNNNVEAVSQTSSSSFQYMYLLKDLWQKRQKQVKDNENVVNEYSSELEKHQLYIDETVNSNIPTNLRVLRSILENLRSKIQKLESDVSAQMEYCRTPCTVSCNIPVVSGKECEEIIRKGGETSEMYLIQPDSSVKPYRVYCDMNTENGGWTVIQNRQDGSVDFGRKWDPYKQGFGNVATNTDGKNYCGLPGEYWLGNDKISQLTRMGPTELLIEMEDWKGDKVKAHYGGFTVQNEANKYQISVNKYRGTAGNALMDGASQLMGENRTMTIHNGMFFSTYDRDNDGWLTSDPRKQCSKEDGGGWWYNRCHAANPNGRYYWGGQYTWDMAKHGTDDGVVWMNWKGSWYSMRKMSMKIRPFFPQQ
chain 3: YVATRDNCCILDERFGSYCPTTCGIADFLSTYQTKVDKDLQSLEDILHQVENKTSEVKQLIKAIQLTYNPDESSKPNMIDAATLKSRKMLEEIMKYEASILTHDSSIRYLQEIYNSNNQKIVNLKEKVAQLEAQCQEPCKDTVQIHDITGKDCQDIANKGAKQSGLYFIKPLKANQQFLVYCEIDGSGNGWTVFQKRLDGSVDFKKNWIQYKEGFGHLSPTGTTEFWLGNEKIHLISTQSAIPYALRVELEDWNGRTSTADYAMFKVGPEADKYRLTYAYFAGGDAGDAFDGFDFGDDPSDKFFTSHNGMQFSTWDNDNDKFEGNCAEQDGSGWWMNKCHAGHLNGVYYQGGTYSKASTPNGYDNGIIWATWKTRWYSMKKTTMKIIPFNRLTIGEGQQHHLGGAKQAGDV

Key:
Test in all cases: SPR
GST-tagged Fg γ peptide = target: GST-tagged Fg γ peptide
ClfA_(229–545) [1] = target: ClfA_(229–545) (S. aureus strain Newman, UniProt Q53653)
Human fibrinogen [2] = target: B5
Fibrinogen D-fragment [3] = target: T1, Fibrinogen D-fragment (UniProt P02671;P02675;P02679-2)
T1 sequence 1: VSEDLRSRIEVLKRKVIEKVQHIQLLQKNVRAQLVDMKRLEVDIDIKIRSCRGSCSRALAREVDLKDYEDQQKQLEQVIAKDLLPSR
T1 sequence 2: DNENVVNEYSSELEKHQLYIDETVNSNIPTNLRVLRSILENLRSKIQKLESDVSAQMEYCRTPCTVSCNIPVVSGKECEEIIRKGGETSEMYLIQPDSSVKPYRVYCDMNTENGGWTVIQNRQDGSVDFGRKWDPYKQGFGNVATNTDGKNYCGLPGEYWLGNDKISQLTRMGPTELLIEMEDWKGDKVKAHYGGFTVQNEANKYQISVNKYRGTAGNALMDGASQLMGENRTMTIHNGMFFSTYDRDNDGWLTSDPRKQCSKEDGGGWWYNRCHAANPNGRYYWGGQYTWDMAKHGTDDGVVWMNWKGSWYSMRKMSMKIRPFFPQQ
T1 sequence 3: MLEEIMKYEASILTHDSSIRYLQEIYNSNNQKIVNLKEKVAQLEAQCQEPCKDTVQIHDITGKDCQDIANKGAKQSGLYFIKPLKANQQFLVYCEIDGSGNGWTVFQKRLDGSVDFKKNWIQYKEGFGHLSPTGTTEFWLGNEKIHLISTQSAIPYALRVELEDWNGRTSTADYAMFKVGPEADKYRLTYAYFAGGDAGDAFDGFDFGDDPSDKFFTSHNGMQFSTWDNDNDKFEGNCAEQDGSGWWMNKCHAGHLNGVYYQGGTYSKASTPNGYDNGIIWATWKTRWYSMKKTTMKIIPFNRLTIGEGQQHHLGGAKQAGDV

Human fibrinogen [4] = target: B5; remark: listed apart in the source
Fibrinogen D-fragment [5] = target: T1, Fibrinogen D-fragment; remark: listed apart in the source
ClfA_(229–545) [6] = target: B2

Molecule “ClfA N3 (ClfA_(370–559)) (from UniProt Q53653 370-559) (domain or fragment)” has a fold lower affinity against intact Fg or Fg D-fragment (GST-tagged Fg γ peptide) of 10 fold.

In the case of “ClfA_(229–545) (from UniProt Q53653 229-545) (domain or fragment)”, the fold difference in KD against Fg or Fg D-fragment (GST-tagged Fg γ peptide) is reported as 50 fold.

B1: tefibazumab (antibody, V domains shown)
VH: QVQLKESGPGLVKPSQTLSITCTISGFSLSRYSVHWVRQPPGKGLEWLGMIWGGGNTDYNSALKSRLSISKDNSKNQVFLKMNSLTAADTAVYYCARKGEFYYGYDGFVYWGQGTLVTVSS
VL: DIVMTQSPDSLAVSLGERVTMNCKSSQSVLYSSNQKNYLAWYQQKPGQSPKLLIYWASTRESGVPDRFSGSGSGTDFTLTISSVQAEDLAVYYCHQYLSSYTFGGGTKLEIK
With B1 the IC50 (ClfA_(229–545) [1]) was 330 nM and 390 nM, the Kd (ClfA_(229–545) [1]) was 0.79 nM and 0.81 nM and 0.7 nM and the koff (ClfA_(229–545) [1]) was 0.00049 s⁻¹. It also gave a kon (ClfA_(229–545) [1]) of 594000 M⁻¹ s⁻¹.

In the case of B2, the Kd (Human fibrinogen [2]) is reported as 610 nM and 660 nM.

B3: ClfA N3 (ClfA_(370–559)) (domain or fragment)
chain: EKYGKFYNLSIKGTIDQIDKTNNTYRQTIYVNPSGDNVIAPVLTGNLKPNTDSNALIDQQNTSIKVYKVDNAADLSESYFVNPENFEDVTNSVNITFPNPNQYKVEFNTPDDQITTPYIVVVNGHIDPNSKGDLALRSTLYGYNSNIIWRSMSWDNEVAFNNGSGSGDGIDKPVVPEQPDEPGEIEPIPE
For B3, the “fold of KD against ClfA229-545 on the same protein” value (Human fibrinogen [2]) was about 10 fold and the “fold of KD against ClfA229-545 on the same protein” value (Fibrinogen D-fragment [3]) was about 10 fold.

B4: ClfAPWY (domain or fragment)
chain: VAADAPAAGTDITNQLTNVTVGIDSGTTVYPHQAGYVKLNYGFSVPNSAVKGDTFKITVPKELNLNGVTSTAKVPPIMAGDQVLANGVIDSDGNVIYTFTDYVNTKDDVKATLTMPAYIDPENVKKTGNVTLATGIGSTTANKTVLVDYEKYGKFYNLSIKGTIDQIDKTNNTYRQTIYVNPSGDNVIAPVLTGNLKPNTDSNALIDQQNTSIKVYKVDNAADLSESYFVNPENFEDVTNSVNITFANPNQYKVEFNTPDDQITTPYIVVVNGHIDPNSKGDLALRSTLYGANSNIIARSMSWDNEVAFNNGSGSGDGIDKPVVPEQPDEPGEIEPIPE
B4 was tested, and the Kd (Human fibrinogen [4]) was 10000 nM and the Kd (Fibrinogen D-fragment [5]) was 17000 nM.

In the case of B5, the IC50 (ClfA_(229–545) [6]) is reported as 430 nM and 480 nM.
